In experiment [1] the target is HLA-A*0202 (human). Kind of experiment: competition binding to purified HLA, 125I-labelled standard peptide, gel filtration; ratio = IC50 standard / IC50 test peptide. A general note: In gel filtration, larger molecules generally elute earlier.
Experiment [2] has as its target HLA-A*0202 (human). Kind of experiment: inhibition of 125I probe peptide binding to purified HLA, gel filtration; ratio = IC50 standard/IC50 test.
Experiment [3] has as its target HLA-A*0206 (human). The experiment is described as above.
The target of experiment [4] is HLA-A*0201 (human). Described as above.
Experiment [5] concerns the target HLA-A*6802 (human). The description is as above.
In the next experiment the target is HLA-A*0101 (human). The experiment is described as follows: competition with 125I-labelled standard peptide for purified HLA-A*0101, gel filtration.
Another experiment concerns the target HLA-A*1101 (human). The experiment is described as follows: competition with 125I-labelled standard peptide for purified HLA-A*1101, gel filtration; ratio to the A*1101 standard peptide 940.06 [..] (6.0 nM).
For experiment [6], the target named is HLA-A*0203 (human). Kind of experiment: competition for purified HLA with 125I-labelled standard peptide 941.01 [..] as competitor, gel filtration. The settings on record: scale: ratio.
Experiment [7] deals with HLA-A*0206 (human). The description is as above. The settings on record: scale: ratio.
Experiment [8] deals with HLA-A*0201 (human). The experiment is described as above. As to conditions: scale: ratio.
The target of experiment [9] is HLA-A*0202 (human). Kind of experiment: competition with 125I-labeled probe peptide for purified HLA, gel filtration.
The target of experiment [10] is HLA-A*0203 (human). Described as above.
Experiment [11] has as its target HLA-A*0206 (human). Described as above.
The target in experiment [12] is HLA-A*0201 (human). The experiment is described as above.
The target of experiment [13] is HLA-A*0206 (purified HLA class I molecule) (human). Kind of experiment: competition with 125I-labelled standard peptide for purified HLA, gel filtration.
Experiment [14] concerns the target HLA-A*0202 (purified HLA class I molecule) (human). The description is as above.
In experiment [15] the target is HLA-A*0202 (human). Kind of experiment: competition for purified HLA with 125I-labelled standard peptide 941.01 [..] as competitor, gel filtration. As to conditions: scale: ratio.
The target in experiment [16] is HLA-A*6802 (human). Kind of experiment: competition with 125I-labeled probe peptide for purified HLA, gel filtration.
For experiment [17], the target named is HLA-A*0201 (human). The experiment is described as follows: competitive inhibition of 125I-labelled standard peptide binding to purified HLA.
Experiment [18] concerns the target HLA-A*6802 (human). Described as above.
The target in experiment [19] is HLA-A*0202 (human). Kind of experiment: competition with 125I-labelled standard peptide 941.01 for purified HLA-A*0202, gel filtration.
Experiment [20] addresses HLA-A*0203 (human). The experiment is described as follows: competition with 125I-labelled standard peptide 941.01 for purified HLA-A*0203, gel filtration.
For experiment [21], the target named is HLA-A*6802 (human). Kind of experiment: competition with 125I-labelled standard peptide 1072.34 for purified HLA-A*6802, gel filtration.
Experiment [22] addresses HLA-A*0206 (human). Kind of experiment: competition with 125I-labelled standard peptide 941.01 for purified HLA-A*0206, gel filtration.
Experiment [23] concerns the target HLA-A*0201 (human). The experiment is described as follows: competition with 125I-labelled standard peptide 941.01 for purified HLA-A*0201, gel filtration.
Experiment [24] concerns the target HLA-A*0201 (purified HLA class I molecule) (human). Kind of experiment: competition with 125I-labelled standard peptide for purified HLA, gel filtration.
Experiment [25] has as its target HLA-A*0202 (human). The experiment is described as follows: competition with 125I-labelled standard peptide for purified HLA, gel filtration; ratio = IC50 standard / IC50 test peptide. As to conditions: remark: other sources report otherwise.
Experiment [26] addresses HLA-A*0203 (human). The experiment is described as above. The settings on record: remark: other sources report otherwise.
Experiment [27] concerns the target HLA-A*0206 (human). The experiment is described as above. The settings on record: remark: other sources report otherwise.
Experiment [28] has as its target HLA-A*0201 (human). The description is as above. As to conditions: remark: other sources report otherwise.
The target in experiment [29] is HLA-A*0202 (human). Kind of experiment: competitive inhibition of 125I-labelled standard peptide binding to purified HLA.
Experiment [30] concerns the target HLA-A*0203 (human). The description is as above.
For experiment [31], the target named is HLA-A*0206 (human). The description is as above.
Where [32] appears, read: remark: other sources report otherwise.

Read-outs that look alike come from different tables or passages of the source.

The IC50 is the point on the concentration scale where inhibition reaches its midpoint.

B1: DTGQRVPV (Kallikrein, position 85, 8 amino acids) (peptide)
peptide: DTGQRVPV
modifications: not checked
B1: the binding affinity ratio in the experiment with HLA-A*0202 (human) [1] came out at 0.0001.

B2: ALPEKPAV (Kallikrein, position 235) (peptide)
peptide: ALPEKPAV
modifications: not checked
As for B2, the binding affinity ratio with HLA-A*0202 (human) [2] (setting [32]) was 0.02; with HLA-A*0206 (human) [3] (setting [32]) it was 0.0001; with HLA-A*0201 (human) [4] (setting [32]), 0.0009; with HLA-A*6802 (human) [5] (setting [32]), -0.0001.

B3: … (Kallikrein, position 63) (peptide)
peptide: AAHCLKKNSQV
modifications: not checked
Turning to B3, the binding affinity ratio is 0.0006 with HLA-A*0202 (human) [2] (setting [32]), 0.0001 in the experiment with HLA-A*0206 (human) [3] (setting [32]) and 0.0003 in the experiment with HLA-A*0201 (human) [4] (setting [32]).

B4: … (PAP, position 332) (peptide)
peptide: RNETQHEPY
modifications: not checked
Regarding B4, the binding affinity ratio (IC50 of standard peptide / IC50 of test peptide) in the experiment with HLA-A*0101 (human) and with HLA-A*1101 (human) was 0.0002 each time.

B5: … (Kallikrein position 177, 9-mer) (peptide)
peptide: HLLSNDMCA
modifications: not checked
For the molecule B5, the binding affinity ratio with HLA-A*0203 (human) [6] came out at 0.0005; with HLA-A*0206 (human) [7] it was 0.0009; with HLA-A*0201 (human) [8] it was 0.002.

B6: Peptide 1389.20 … (PSM.27.V9) (peptide)
peptide: VLAGGFFLV
modifications: not checked
Turning to B6, the IC50 was 0.4 nM in the experiment with HLA-A*0202 (human) [9], 5 nM with HLA-A*0203 (human) [10], 57 nM with HLA-A*0206 (human) [11] and 26 nM in the experiment with HLA-A*0201 (human) [12].

B7: Kallikrein (hK2) peptide MLCAGLWT (position 196, 8 amino acids) (peptide)
peptide: MLCAGLWT
modifications: not checked
For the molecule B7, the binding affinity ratio (IC50 of standard peptide / IC50 of test peptide) in experiment [13] turned out to be 0.0001; in experiment [14] it was 0.002.

B8: IALSVGCT (Kallikrein position 8, 8-mer) (peptide)
peptide: IALSVGCT
modifications: not checked
Turning to B8, the binding affinity ratio with HLA-A*0202 (human) [15] was -0.0002; in the experiment with HLA-A*0203 (human) [6], -0.0001; with HLA-A*0206 (human) [7], -0.0001; with HLA-A*0201 (human) [8], 0.0001.

B9: Peptide 1126.01 … (PSM.663) (peptide)
peptide: MMNDQLMFL
modifications: not checked
For the molecule B9, the IC50 with HLA-A*0202 (human) [9] amounted to 0.8 nM; with HLA-A*0203 (human) [10], 1.7 nM; with HLA-A*0206 (human) [11], 7.6 nM; with HLA-A*6802 (human) [16], 195 nM.

B10: Peptide 63.0014, … (PSA.117) (peptide)
peptide: LMLLRLSEPA
modifications: not checked
For the molecule B10, the IC50 was determined as 200 nM with HLA-A*0201 (human) [17] (setting [32]) and 5000 nM with HLA-A*6802 (human) [18] (setting [32]).

B11: … (Kallikrein, position 125) (peptide)
peptide: RLSEPAKIT
modifications: not checked
As for B11, the binding affinity ratio (IC50 of standard peptide / IC50 of test peptide) is -0.0002 in the experiment with HLA-A*0202 (human) [19]; 0.0009 with HLA-A*0203 (human) [20]; -0.0002 in the experiment with HLA-A*6802 (human) [21]; -0.0001 with HLA-A*0206 (human) [22]; -0.0001 with HLA-A*0201 (human) [23].

B12: Kallikrein (hK2) peptide NLFEPEDT (position 79, 8 amino acids) (peptide)
peptide: NLFEPEDT
modifications: not checked
On to B12, for which the results for the binding affinity ratio (IC50 of standard peptide / IC50 of test peptide) in experiment [13] and in experiment [24] were -0.0001 and 0.0002, respectively.

B13: PSM peptide … (position 26, 9 amino acids) (peptide)
peptide: LVLAGGFFL
modifications: not checked
On to B13, for which the binding affinity ratio (IC50 of standard peptide / IC50 of test peptide) in experiment [14] (setting [32]) was 0.003.

B14: DAVKVMDL (PSA, position 130, 8 amino acids) (peptide)
peptide: DAVKVMDL
modifications: not checked
For the molecule B14, the binding affinity ratio in the experiment with HLA-A*0202 (human) [1] came to 0.0003.

B15: PSA peptide …, position 138, 10 amino acids (peptide)
peptide: PTQEPALGTT
modifications: not checked
Consider B15, for which the binding affinity ratio (ratio to standard peptide) with HLA-A*0202 (human) [25] was 0.022; in the experiment with HLA-A*0203 (human) [26], 0.052; in the experiment with HLA-A*0206 (human) [27], 0.0037; with HLA-A*0201 (human) [28], 0.0084.

B16: … (Kallikrein, position 235) (peptide)
peptide: ALPEKPAVYT
modifications: not checked
With B16, the binding affinity ratio was 0.005 with HLA-A*0202 (human) [2], 0.0005 in the experiment with HLA-A*0206 (human) [3], 0.0003 with HLA-A*0201 (human) [4] and -0.0001 with HLA-A*6802 (human) [5].

B17: RAVCGGVL (PSA, position 43) (peptide)
peptide: RAVCGGVL
modifications: not checked
With B17, the binding affinity ratio (IC50 of standard peptide / IC50 of test peptide) is -0.0001 with HLA-A*0202 (human) [19]; 0.0003 in the experiment with HLA-A*0203 (human) [20]; -0.0001 with HLA-A*6802 (human) [21]; -0.0001 with HLA-A*0206 (human) [22]; -0.0001 with HLA-A*0201 (human) [23].

B18: … (Kallikrein position 8, 11-mer) (peptide)
peptide: IALSVGCTGAV
modifications: not checked
B18: the binding affinity ratio in the experiment with HLA-A*0202 (human) [15] (setting [32]) came out at 0.0032; with HLA-A*0203 (human) [6] (setting [32]), 0.027; in the experiment with HLA-A*0206 (human) [7] (setting [32]) it was 0.01; with HLA-A*0201 (human) [8] (setting [32]), 0.0009.

B19: RAYSEKVT (Kallikrein, position 186) (peptide)
peptide: RAYSEKVT
modifications: not checked
As for B19, the binding affinity ratio (IC50 of standard peptide / IC50 of test peptide) in the experiment with HLA-A*0202 (human) [19] is -0.0001; with HLA-A*0203 (human) [20] it was 0.0003; with HLA-A*6802 (human) [21], -0.0001; with HLA-A*0206 (human) [22] it was 0.0001; with HLA-A*0201 (human) [23], -0.0001.

B20: Peptide 1418.55, … (PSA.213.V10) (peptide)
peptide: LVCNGVLQGV
modifications: not checked
For the molecule B20, the IC50 in the experiment with HLA-A*0202 (human) [29] turned out to be 2.9 nM; with HLA-A*0203 (human) [30], 12 nM; with HLA-A*0206 (human) [31] it was 5.6 nM; with HLA-A*0201 (human) [17] it was 10 nM; with HLA-A*6802 (human) [18], 3.5 nM.

B21: Peptide 60.0217, … (PSA.5.V9) (peptide)
peptide: TLSVTWIGV
modifications: not checked
Turning to B21, the IC50 in the experiment with HLA-A*0202 (human) [29] (setting [32]) was 4.9 nM; in the experiment with HLA-A*0203 (human) [30] (setting [32]) it was 40 nM; with HLA-A*0206 (human) [31] (setting [32]), 712 nM; in the experiment with HLA-A*6802 (human) [18] (setting [32]), 229 nM.

B22: Kallikrein (hK2) peptide …, position 142, 10 amino acids (peptide)
peptide: PTQEPALGTT
modifications: not checked
With B22, the binding affinity ratio (ratio to standard peptide) with HLA-A*0202 (human) [25] was found to be 0.022; with HLA-A*0203 (human) [26], 0.052; with HLA-A*0206 (human) [27] it was 0.0037; in the experiment with HLA-A*0201 (human) [28] it was 0.0084.

B23: Peptide 1418.30 … (PSM.711.T2) (peptide)
peptide: ATFDIESKV
modifications: not checked
With B23, the IC50 with HLA-A*0202 (human) [9] is 27 nM; with HLA-A*0203 (human) [10], 44 nM; with HLA-A*0206 (human) [11] it was 82 nM; with HLA-A*0201 (human) [12] it was 238 nM; in the experiment with HLA-A*6802 (human) [16] it was 258 nM.

Source of the values: patent US20070020327A1.
